Series [1] has as its system HEK293T cells. The series is described as follows: Western blot of FLAG-tagged TET2 with ADMA antibodies, wild type vs CARM1 KO. The class given is cell-based. The protocol:
TET2, methylcytosine dioxygenase with a prominent role in DNA demethylation frequently mutated in various human cancers, was identified among novel CARM1 substrates. To assure its correct identification, we probed FLAG-tagged TET2 with ADMA antibody in wild type and CARM1 KO HEK293T cells (Fig. 2c).
(§1) Cells were collected by trypsinization, washed with Dulbecco's phosphate buffer saline (Life Technologies, Carlsbad, CA) and lysed by suspension in lysis buffer (50 mM Tris-HCl pH 8.0, 150 mM NaCl, 10% glycerol, 0.5% Triton X-100 and 1 × protease inhibitor cocktail (Sigma-Aldrich)). After brief sonication followed by centrifugation, total protein was quantified using the BioRad Protein Assay (BioRad, Hercules, CA), and 20 μg protein was resolved by SDS–PAGE. Proteins were transferred to a nitrocellulose membrane for 1.5 h at 350 mA. Membranes were blocked with 5% nonfat milk at room temperature for 1 h and incubated overnight with diluted primary antibody at 4 °C. Membranes were then washed and incubated with HRP-conjugated secondary antibody for 1 h at room temperature. Signal was visualized by enhanced chemiluminescence reagents (Thermo Scientific, Rockford, IL) and X-ray film exposure followed by scanning and digitalization. Me-PABP1 and PABP1 antibodies, me-BAF155 antibody[20] and me-MED12 antibody[30] were generated previously in the Xu lab. […]
For orientation: In western blotting, separated proteins are transferred to a membrane and probed.

Series [2] has as its system histone substrate. The note with it: CARM1, natural histone substrate; ref Jacques et al., 2016; cited from earlier work. The text has this:
page 18: We agree with the reviewer’s assertion that proteomic experiments generally suffer from the abundance bias. However, we, and others, argue that analyses of post-translational modifications are less affected by this issue, as the immunoprecipitation and other methods of PTM enrichment rely on the abundance of the PTM itself, not the protein that bears it, i.e., a strongly modified low abundance protein is as likely to be pulled down as a lowly modified high abundance protein.

Series [3] concerns HEK293T CARM1 KO cells. In words: Total ADMA levels after transient transfection, western blot. The class given is cell-based. The note with it: transient expression in HEK293T CARM1 KO cells. The protocol: (§2) Next, we transiently transfected FL and the two aforementioned CARM1 truncations in HEK293T CARM1 KO cells and measured substrate methylation by western blotting with ADMA antibodies.
as §1

Series [4] has as its system BAF155, MED12, PABP1, NCOA3 and TET2. In words: Co-immunoprecipitation of BAF155, MED12, PABP1, NCOA3 and TET2 with FLAG-tagged CARM1, western blot. The following applies: FLAG-tagged construct transiently transfected in HEK293T CARM1 KO cells; anti-FLAG IP. The class given is cell-based.
From the text: The structure of the N-terminal domain of CARM1 (residues 28–140) resembles those of the EVH1 domains, a subfamily of PH domains that bind proline-rich sequences. With our discovery that CARM1 substrates contain proline-rich motifs, we posited that the protein's N-terminal domain may be required for substrate recognition. To test this hypothesis, we generated three CARM1 constructs: one full-length (CARM1 FL) and two N-terminal truncations CARM1 28–608 and CARM1 140–608 (Fig. 3a). […] We transiently transfected the three FLAG-tagged CARM1 fusion constructs in HEK293T CARM1 KO cells. CARM1 was immunoprecipitated from all three cell lines using anti-FLAG M2 resin, and four known CARM1 substrates/interactors (that is, BAF155 (ref. [20]), MED12 (ref. [30]), PABP1 (ref. [36]) and NCOA3 (ref. [19])) and newly identified TET2 were detected by western blotting. […] To globally assess the magnitude of reduction in CARM1–substrate interactions induced by the loss of the EVH1 domain, we visualized overall protein changes in CARM1 immunoprecipitates by western blotting using the ADMA antibody (Fig. 3c).
as §1, with “digitalization.” for “digitalization. Me-PABP1 and PABP1 antibodies, me-BAF155 antibody[20] and me-MED12 antibody[30] were generated previously in the Xu lab.”

The test system of series [5] is recombinant full-length BAF155 protein. In words: In vitro methylation of full-length FLAG-BAF155 by recombinant CARM1 proteins, autoradiography. The format is biochemical. The note with it: 3H-SAM, 50 mM Tris-HCl pH 8.0, 100 mM NaCl, 0.5 mM EDTA, 1–4 h, 30 °C. The protocol:
The FL and N-terminal domain-deleted version of human CARM1 cDNAs, and other PRMT FL cDNAs were cloned into pFN21K Halo Tag CMV Flexi mammalian expression vector (Promega, Madison, WI) using the unique Sgfl and Pmel site[55]. To express the protein, DNA constructs were transiently transfected into HEK293T CARM1 KO cells in 15 cm dishes using transIT-LT1 reagent (Mirus Bio, Madison, WI) according to the manufacturer's protocol. Proteins were allowed to express for 48 h. Cell pellets were then collected and lysed in lysis buffer (50 mM HEPES, pH 7.5, 150 mM NaCl, 0.005% NP-40, 0.5 mM EDTA, supplemented with 1 × protease inhibitor cocktail before use). The cells were sonicated on ice using a Branson Sonifier 450 with a microtip at 35% amplitude (10 s on, 30 s off, 6 cycles). […] The resin was centrifuged at 3,000 r.p.m. for 5 min, and the supernatant containing the cleaved protein was collected and protein concentration was determined using the Bradford assay (Thermo Scientific, Rockford, IL). Protein purity was assessed by running SDS–PAGE and Coomassie Blue staining.
CMX-Flag-BAF155 construct was generated by subcloning a PCR-amplified Flag-BAF155 fragment into the CMX-expression vector. […] Protein concentration was determined using Bradford assay and protein purity was assessed by SDS–PAGE and Coomassie Blue staining. […]

For series [6], the system named is HEK293T CARM1 KO cells. In words: Rescue of endogenous BAF155 and MED12 methylation, transient transfection, western blot. The format is cell-based. The following applies: transient expression in HEK293T CARM1 KO cells. The protocol: as §2
Cells were collected by trypsinization, washed with Dulbecco's phosphate buffer saline (Life Technologies, Carlsbad, CA) and lysed by suspension in lysis buffer (50 mM Tris-HCl pH 8.0, 150 mM NaCl, 10% glycerol, 0.5% Triton X-100 and 1 × protease inhibitor cocktail (Sigma-Aldrich)). After brief sonication followed by centrifugation, total protein was quantified using the BioRad Protein Assay (BioRad, Hercules, CA), and 20 μg protein was resolved by SDS–PAGE. Proteins were transferred to a nitrocellulose membrane for 1.5 h at 350 mA. Membranes were blocked with 5% nonfat milk at room temperature for 1 h and incubated overnight with diluted primary antibody at 4 °C. Membranes were then washed and incubated with HRP-conjugated secondary antibody for 1 h at room temperature. Signal was visualized by enhanced chemiluminescence reagents (Thermo Scientific, Rockford, IL) and X-ray film exposure followed by scanning and digitalization. Me-PABP1 and PABP1 antibodies, me-BAF155 antibody[20] and me-MED12 antibody[30] were generated previously in the Xu lab. FLAG antibody (catalogue #F7425) was purchased from Sigma and used at a dilution of 1:5,000; BAF155 antibody (sc-10756) was purchased from Santa Cruz and used at a dilution of 1:1,000; MED12 antibody (ab70842) was purchased from Abcam (Cambridge, MA) and used at 1:1,000 dilution.

The values below come from publication PMC5458078, “Global mapping of CARM1 substrates defines enzyme specificity and substrate recognition” (Nature Communications, 2017).

Take “TET2: FLAG-tagged TET2, methylcytosine dioxygenase”: the “ADMA modification of TET2 in the absence of CARM1” value in series [1] is reported as “complete disappearance of ADMA modification on TET2”.

B1: CARM1: coactivator-associated arginine methyltransferase 1 (protein)
chain: MAAAAAAVGPGAGGAGSAVPGGAGPCATVSVFPGARLLTIGDANGEIQRHAEQQALRLEVRAGPDSAGIALYSHEDVCVFKCSVSRETECSRVGKQSFIITLGCNSVLIQFATPNDFCSFYNILKTCRGHTLERSVFSERTEESSAVQYFQFYGYLSQQQNMMQDYVRTGTYQRAILQNHTDFKDKIVLDVGCGSGILSFFAAQAGARKIYAVEASTMAQHAEVLVKSNNLTDRIVVIPGKVEEVSLPEQVDIIISEPMGYMLFNERMLESYLHAKKYLKPSGNMFPTIGDVHLAPFTDEQLYMEQFTKANFWYQPSFHGVDLSALRGAAVDEYFRQPVVDTFDIRILMAKSVKYTVNFLEAKEGDLHRIEIPFKFHMLHSGLVHGLAFWFDVAFIGSIMTVWLSTAPTEPLTHWYQVRCLFQSPLFAKAGDTLSGTCLLIANKRQSYDISIVAQVDQTGSKSSNLLDLKNPFFRYTGTTPSPPPGSHYTSPSENMWNTGSTYNLSSGMAVAGMPTAYDLSSVIASGSSVGHNNLIPLANTGIVNHTHSRMGSIMSTGIVQGSSGAQGSGGGSTSAHYAVNSQFTMGGPAISMASPMSIPTNTMHYGS
modifications: left off: FLAG, end not stated, kept
One may read the Km as the substrate concentration at which the rate is half of its maximum. On to B1, for which the Km in series [2] was 0.15 µM.

B2: CARM1 FL: full-length CARM1, contained 608 residues (protein)
chain: B1 chain
modifications: left off: FLAG, end not stated, kept
notes: full-length CARM1, contained 608 residues
In the case of B2, in series [3], the “Total levels of ADMA modification” value is on record as “recovered to the level of parental cells”. For the same molecule, the “Co-precipitation of BAF155, MED12, PABP1, NCOA3 and TET2” value in series [4] was “all five proteins were co-precipitated”. For the same molecule, in series [5], the “Methylation of full-length BAF155” value is listed as “methylated recombinant full-length BAF155 protein”. For the same molecule, the “Methylation of endogenous BAF155 and MED12” value in series [6] is “methylation of endogenous BAF155 and MED12 was restored”.

B3: CARM1 28–608: CARM1 28–608 lacks the first, unstructured 28 residues (protein)
chain: TVSVFPGARLLTIGDANGEIQRHAEQQALRLEVRAGPDSAGIALYSHEDVCVFKCSVSRETECSRVGKQSFIITLGCNSVLIQFATPNDFCSFYNILKTCRGHTLERSVFSERTEESSAVQYFQFYGYLSQQQNMMQDYVRTGTYQRAILQNHTDFKDKIVLDVGCGSGILSFFAAQAGARKIYAVEASTMAQHAEVLVKSNNLTDRIVVIPGKVEEVSLPEQVDIIISEPMGYMLFNERMLESYLHAKKYLKPSGNMFPTIGDVHLAPFTDEQLYMEQFTKANFWYQPSFHGVDLSALRGAAVDEYFRQPVVDTFDIRILMAKSVKYTVNFLEAKEGDLHRIEIPFKFHMLHSGLVHGLAFWFDVAFIGSIMTVWLSTAPTEPLTHWYQVRCLFQSPLFAKAGDTLSGTCLLIANKRQSYDISIVAQVDQTGSKSSNLLDLKNPFFRYTGTTPSPPPGSHYTSPSENMWNTGSTYNLSSGMAVAGMPTAYDLSSVIASGSSVGHNNLIPLANTGIVNHTHSRMGSIMSTGIVQGSSGAQGSGGGSTSAHYAVNSQFTMGGPAISMASPMSIPTNTMHYGS
modifications: left off: FLAG, end not stated, kept
notes: CARM1 28–608 lacks the first, unstructured 28 residues
As to B3, the “Total levels of ADMA modification” value in series [3] is reported as “recovered to the level of parental cells”. In addition, the “Co-precipitation of BAF155, MED12, PABP1, NCOA3 and TET2” value in series [4] is “all five proteins were co-precipitated”. The “Methylation of full-length BAF155” value in series [5] was “methylated recombinant full-length BAF155 protein”. Further, the “Methylation of endogenous BAF155 and MED12” value in series [6] was “methylation of endogenous BAF155 and MED12 was restored”.
